Each block holds one molecule with its values, some of them ahead of it.
Columns and labels:
calcineurin (CNA/B) = calcineurin (CNA/B) (UniProt Q08209); experiment: ITC
[1] = target: pre-formed RCAN1^128-164:calcineurin complex, Q08209; experiment: ITC, peptide titrated into the pre-formed RCAN1^128-164:calcineurin complex

Molecule: RCAN1 mutant PSVVVH (SEQ ID NO: 13) →ASAVAA (SEQ ID NO: 18) (from UniProt P53805 56-252)
fold decrease in Kd (against unmutated RCAN1) (calcineurin (CNA/B)): 220 fold

Molecule: RCAN1^89-197 (from UniProt O35847 89-142)
Kd (calcineurin (CNA/B)): 0.01 µM

Molecule: RCAN1^128-192 (from UniProt P53805 183-247)
Kd (calcineurin (CNA/B)): 0.3 µM

Molecule: RPKPKIIQTRRPEYT (modifications not checked) [peptide consisting of RCAN1^178-192 that includes the TxxP (SEQ ID NO: 11) site]
Kd [1]: 15 µM

Second part, the molecule after the results:

fold decrease in binding affinity (calcineurin (CNA/B)): 220 fold
Molecule: RCAN1 construct with the PxIxIT (SEQ ID NO: 9) motif deleted

fold decrease in Kd (against unmutated RCAN1) (calcineurin (CNA/B)): 2.5 fold
Molecule: RCAN1 mutant HLAPP (SEQ ID NO: 16) →AAAAA (SEQ ID NO: 17) (from UniProt P53805 56-252)

From US20160038571A1
